Protein stability index data for 67 sequences are collected here from the supplement of paper PMC10724198.

In the data set the test system is Saccharomyces cerevisiae. Description: protein stability index of tFT-peptide fusion (C-terminal peptide) (PSI (0-1 scale)); higher = more stable (slower turnover). Particulars: temperature: 30 C. As for the experimental part:
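MPS profiling in S. cerevisiae of the yeast C-terminome library: the last 12 aa of each annotated ORF are fused to the C-terminus of a sfGFP-mCherry timer, after a GGGS linker. Cells are FACS-sorted into 8 mCherry/sfGFP bins and deep-sequenced. PSI runs from 0 (unstable) to 1 (stable); wild type and das1Δ backgrounds, two technical replicates each.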

[1] abbreviates: genetic background: das1 deletion.

± gives the standard deviation of the averaged measurements.

For the sequence QRIEGMLQLLTS [UTP15 C-terminal 12 aa], the protein stability index was found to be 0.715 ± 0.025 under setting [1] and 0.64093 ± 0.00026 (genetic background: wild type).
For the sequence QSLYKDATSHWL [GYP1 C-terminal 12 aa], the protein stability index by setting is: under setting [1], 0.7085 ± 0.0033; (genetic background: wild type) 0.6825 ± 0.0036.
With “QSVAILDGKLVW [YGL258W-A C-terminal 12 aa]”, the protein stability index runs as follows: under setting [1], 0.677 ± 0.015; (genetic background: wild type) 0.65 ± 0.021.
In the case of QTLAPVPYETFI [RPL21A C-terminal 12 aa], the protein stability index by setting is: under setting [1], 0.718 ± 0.01; (genetic background: wild type) 0.728 ± 0.013.
Consider QVVAIIKKAYEY [ADH4 C-terminal 12 aa], for which the protein stability index under setting [1] came to 0.707 ± 0.0071 and the protein stability index (genetic background: wild type) worked out at 0.679 ± 0.015.
Taken in the same sequence, the figures for QYKNKLAKNVVL [ARB1 C-terminal 12 aa] were 0.675 ± 0.012 and 0.6797 ± 0.0058.
In the case of QYTQRVGRPNFE [YGR226C C-terminal 12 aa], the protein stability index reads like this: under setting [1], 0.7078 ± 0.0012; (genetic background: wild type) 0.674 ± 0.026.
RARPRTANRQHM [CCT2 C-terminal 12 aa]: the protein stability index worked out at 0.68332 ± 0.0002 under setting [1] and 0.6991 ± 0.005 (genetic background: wild type).
RDLLRDDKVALI [SLD5 C-terminal 12 aa] had a protein stability index under setting [1] of 0.715 ± 0.023 and a protein stability index (genetic background: wild type) of 0.6977 ± 0.0027.
Take REENAHLETYKV [HRK1 C-terminal 12 aa]: the protein stability index is, setting by setting: under setting [1], 0.7 ± 0.0068; (genetic background: wild type) 0.694 ± 0.016.
Taken in the same sequence, the figures for RERALKVYKDAM [PHR1 C-terminal 12 aa] were 0.6824 ± 0.004 and 0.657 ± 0.0079.
In the same order, the values of RFQDGTSVVSIM [SMC2 C-terminal 12 aa] are 0.695 ± 0.011 and 0.6814 ± 0.006.
On to RHISRLSRLLCR [YGR273C C-terminal 12 aa], for which the protein stability index under setting [1] amounted to 0.6071 ± 0.00082 and the protein stability index (genetic background: wild type) is 0.621 ± 0.027.
In the same order, the values of RINQDIKKVKLL [EMP46 C-terminal 12 aa] are 0.6957 ± 0.0047 and 0.145 ± 0.016.
Regarding RKAVDALRSLTN [ACK1 C-terminal 12 aa], the protein stability index runs as follows: under setting [1], 0.719 ± 0.051; (genetic background: wild type) 0.722 ± 0.045.
Take RKVVFERMETLE [MRPS16 C-terminal 12 aa]: the protein stability index under setting [1] is 0.6857 ± 0.0044 and the protein stability index (genetic background: wild type) amounted to 0.683 ± 0.031.
Regarding RLGDVLRVCCPS [YFL065C C-terminal 12 aa], the protein stability index is, setting by setting: under setting [1], 0.627 ± 0.0072; (genetic background: wild type) 0.668 ± 0.0092.
As to RLKLDYSLIFPQ [MEI5 C-terminal 12 aa], the protein stability index by setting is: under setting [1], 0.7 ± 0.01; (genetic background: wild type) 0.72 ± 0.038.
With “RLLSLAQPPVNF [YER165C-A C-terminal 12 aa]”, the protein stability index amounted to 0.7584 ± 0.0037 under setting [1] and 0.703 ± 0.04 (genetic background: wild type).
In the same order, the values of RQCEDTNFGFKI [YDL242W C-terminal 12 aa] are 0.6949 ± 0.0057 and 0.688 ± 0.039.
As for RQEYKFKKSLLT [YKL131W C-terminal 12 aa], the protein stability index by setting is: under setting [1], 0.679 ± 0.018; (genetic background: wild type) 0.625 ± 0.012.
“RQMTSSFFLVFA [YDR118W-A C-terminal 12 aa]” gave a protein stability index under setting [1] of 0.51187 ± 0.00022 and a protein stability index (genetic background: wild type) of 0.508 ± 0.017.
In turn, RQNTLSLWRYRK [RPL15A C-terminal 12 aa] gave a protein stability index under setting [1] of 0.682 ± 0.0084 and a protein stability index (genetic background: wild type) of 0.682 ± 0.039.
In the same order, the values of RQTRNQTKELDS [DPB11 C-terminal 12 aa] are 0.703 ± 0.033 and 0.691 ± 0.037.
In the same order, the values of RRGDMCDVKENI [PUS7 C-terminal 12 aa] are 0.6678 ± 0.0015 and 0.677 ± 0.031.
In the same order, the values of RRHYSNEDSSFL [APC9 C-terminal 12 aa] are 0.7169 ± 0.0022 and 0.689 ± 0.036.
With RRPAVIKALRGE [URE2 C-terminal 12 aa], the protein stability index is, setting by setting: under setting [1], 0.6904 ± 0.00095; (genetic background: wild type) 0.693 ± 0.023.
In the same order, the values of RRSKKWYSFIFN [SCO2 C-terminal 12 aa] are 0.75 ± 0.018 and 0.731 ± 0.098.
As for “RRTSSISTYLIL [YBL107W-A C-terminal 12 aa]”, the protein stability index was 0.735 ± 0.027 under setting [1] and 0.662 ± 0.043 (genetic background: wild type).
With RRVKSLKTSKKH [PAL2 C-terminal 12 aa], the protein stability index is, setting by setting: under setting [1], 0.72 ± 0.017; (genetic background: wild type) 0.686 ± 0.0093.
As to RSIKRPELGLRV [STT3 C-terminal 12 aa], the protein stability index runs as follows: under setting [1], 0.6814 ± 0.0017; (genetic background: wild type) 0.6862 ± 0.0065.
As for RSLSSRSKECSK [NOC3 C-terminal 12 aa], the protein stability index is, setting by setting: under setting [1], 0.71 ± 0.0075; (genetic background: wild type) 0.672 ± 0.045.
RSTAQRGGYSAV [ATG27 C-terminal 12 aa]: the protein stability index is 0.708 ± 0.0086 under setting [1] and 0.679 ± 0.025 (genetic background: wild type).
As for RVDGKIVVTPQI [RPC53 C-terminal 12 aa], the protein stability index by setting is: under setting [1], 0.7011 ± 0.0011; (genetic background: wild type) 0.694 ± 0.012.
As for RVFEFLEKQKRE [MRPL40 C-terminal 12 aa], the protein stability index under setting [1] was found to be 0.722 ± 0.025 and the protein stability index (genetic background: wild type) came out at 0.723 ± 0.028.
With RVVDLIEYVAKA [TDH1 C-terminal 12 aa], the protein stability index reads like this: under setting [1], 0.6636 ± 0.0045; (genetic background: wild type) 0.703 ± 0.055.
Turning to RYAKIHEKHVSA [ASN2 C-terminal 12 aa], the protein stability index is, setting by setting: under setting [1], 0.7157 ± 0.0026; (genetic background: wild type) 0.7183 ± 0.0066.
With “RYFCHLFRCSII [YDL022C-A C-terminal 12 aa]”, the protein stability index runs as follows: under setting [1], 0.722 ± 0.04; (genetic background: wild type) 0.654 ± 0.021.
For SAITKNLLDDFV [RAV1 C-terminal 12 aa], the protein stability index runs as follows: under setting [1], 0.735 ± 0.05; (genetic background: wild type) 0.745 ± 0.066.
As to SAYMYTKRRFGF [MNR2 C-terminal 12 aa], the protein stability index is, setting by setting: under setting [1], 0.712 ± 0.021; (genetic background: wild type) 0.647 ± 0.017.
With SDIFSFLDETYE [PHO92 C-terminal 12 aa], the protein stability index reads like this: under setting [1], 0.7281 ± 0.007; (genetic background: wild type) 0.718 ± 0.02.
In the case of SENRFELAYFTS [YLR317W C-terminal 12 aa], the protein stability index reads like this: under setting [1], 0.728 ± 0.027; (genetic background: wild type) 0.6901 ± 0.0013.
With SEPVKQVLDSKE [NMA2 C-terminal 12 aa], the protein stability index was 0.749 ± 0.039 under setting [1] and 0.728 ± 0.078 (genetic background: wild type).
SFERLLVETIYS [ALG13 C-terminal 12 aa]: the protein stability index is, setting by setting: under setting [1], 0.5878 ± 0.0031; (genetic background: wild type) 0.624 ± 0.01.
In the same order, the values of SFLFGLYLLLHP [SPR2 C-terminal 12 aa] are 0.4995 ± 0.0033 and 0.484 ± 0.014.
In the same order, the values of SFSDLTLHAIEY [BER1 C-terminal 12 aa] are 0.724 ± 0.031 and 0.69 ± 0.019.
Take SFTDVLGQEQFI [YLR252W C-terminal 12 aa]: the protein stability index was 0.7269 ± 0.0054 under setting [1] and 0.699 ± 0.031 (genetic background: wild type).
With SGKFNGKKKSRR [FAF1 C-terminal 12 aa], the protein stability index is, setting by setting: under setting [1], 0.693 ± 0.029; (genetic background: wild type) 0.666 ± 0.018.
For SHMILYQQQECY [YER181C C-terminal 12 aa], the protein stability index under setting [1] was 0.451 ± 0.0097 and the protein stability index (genetic background: wild type) was found to be 0.46 ± 0.011.
In the case of SHPSFKQLLIQK [MLO1 C-terminal 12 aa], the protein stability index by setting is: under setting [1], 0.677 ± 0.031; (genetic background: wild type) 0.73 ± 0.025.
In the same order, the values of “SIFSYCIIYFIS [YDR524C-A C-terminal 12 aa]” are 0.222 ± 0.013 and 0.111 ± 0.02.
Take SIICIETNKAIR [HPM1 C-terminal 12 aa]: the protein stability index runs as follows: under setting [1], 0.705 ± 0.016; (genetic background: wild type) 0.757 ± 0.099.
For the sequence SIIFLLLSYLLF [SAG1 C-terminal 12 aa], the protein stability index is 0.392 ± 0.042 under setting [1] and 0.381 ± 0.0067 (genetic background: wild type).
Take SIINPSSNGCNK [YNL235C C-terminal 12 aa]: the protein stability index is 0.702 ± 0.028 under setting [1] and 0.615 ± 0.018 (genetic background: wild type).
Take SILGMQDMWKAT [PEX11 C-terminal 12 aa]: the protein stability index amounted to 0.707 ± 0.017 under setting [1] and 0.713 ± 0.022 (genetic background: wild type).
Turning to SILTHSTSPDSR [HYM1 C-terminal 12 aa], the protein stability index by setting is: under setting [1], 0.727 ± 0.033; (genetic background: wild type) 0.718 ± 0.076.
Take SITLDDLENIFN [GDS1 C-terminal 12 aa]: the protein stability index is, setting by setting: under setting [1], 0.735 ± 0.026; (genetic background: wild type) 0.711 ± 0.021.
Regarding SKSGSGGCCIIS [RAS2 C-terminal 12 aa], the protein stability index worked out at 0.736 ± 0.0091 under setting [1] and 0.711 ± 0.011 (genetic background: wild type).
As for SLIPRFDNLLSK [GGC1 C-terminal 12 aa], the protein stability index is, setting by setting: under setting [1], 0.7062 ± 0.0052; (genetic background: wild type) 0.732 ± 0.015.
In the same order, the values of SLLLEKLDPEIE [UBX5 C-terminal 12 aa] are 0.731 ± 0.056 and 0.716 ± 0.013.
For “SLNLILISMTFI [YCR097W-A C-terminal 12 aa]”, the protein stability index turned out to be 0.429 ± 0.0075 under setting [1] and 0.449 ± 0.0049 (genetic background: wild type).
On to SLSSRGKIFSST [EFR3 C-terminal 12 aa], for which the protein stability index under setting [1] was found to be 0.698 ± 0.01 and the protein stability index (genetic background: wild type) was determined as 0.657 ± 0.011.
Regarding SNYNNRTTDMPL [PSP2 C-terminal 12 aa], the protein stability index came to 0.6781 ± 0.0018 under setting [1] and 0.703 ± 0.1 (genetic background: wild type).
Taken in the same sequence, the figures for SPFIPKKRKPRS [SEN1 C-terminal 12 aa] were 0.6983 ± 0.0065 and 0.704 ± 0.036.
For SPIQLKDLESQI [SYS1 C-terminal 12 aa], the protein stability index under setting [1] stood at 0.677 ± 0.019 and the protein stability index (genetic background: wild type) was determined as 0.717 ± 0.0082.
Regarding SQAIPKKKKVLE [MEK1 C-terminal 12 aa], the protein stability index was determined as 0.6937 ± 0.0011 under setting [1] and 0.6887 ± 0.0063 (genetic background: wild type).
In the same order, the values of SQGNVYLPGVAW [NOC4 C-terminal 12 aa] are 0.707 ± 0.009 and 0.738 ± 0.081.
